Laboratory results published in paper PMC9926225.

Legend:
[1] = target: NTD truncated λCI (K192A, residues 101 to 236), C-hexahistidine-tagged (λ phage); test: SEC
[2] = target: RecA (1 to 335), N-heptahistidine-tagged (Escherichia coli); test: cryo-EM structure
RecA (1 to 335), N-heptahistidine-tagged (Escherichia coli), sequence (A7ZQC8 2-336 limits assumed): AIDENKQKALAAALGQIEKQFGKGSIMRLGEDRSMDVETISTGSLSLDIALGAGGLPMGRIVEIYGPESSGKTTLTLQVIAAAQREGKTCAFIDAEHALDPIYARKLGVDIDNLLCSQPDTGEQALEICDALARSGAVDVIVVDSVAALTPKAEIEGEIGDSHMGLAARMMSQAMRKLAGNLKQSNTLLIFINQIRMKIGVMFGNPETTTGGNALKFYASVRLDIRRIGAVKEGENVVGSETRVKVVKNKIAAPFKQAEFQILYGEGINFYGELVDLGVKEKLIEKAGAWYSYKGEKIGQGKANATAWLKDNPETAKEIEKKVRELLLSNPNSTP

| stoichiometry N [1] | stoichiometry N (DinI molecules per RecA protomer) [2] | Molecule |
| --- | --- | --- |
| 2 | – | NTD truncated λCI (K192A, residues 101 to 236), C-hexahistidine-tagged (domain or fragment) |
| – | 0.5 | DinI (natural protein) MRIEVTIAKTSPLPAGAIDALAGELSRRIQYAFPDNEGHVSVRYAAANNLSVIGATKEDKQRISEILQETWESADDWFVSE |
